{"source": "patent WO2001004159A1", "key": {"[1]": {"biological_target": "platelet Fc receptor Fc-gamma RIIA (human) (UniProt P12318)", "sequence (P12318 34-317, form in doubt)": "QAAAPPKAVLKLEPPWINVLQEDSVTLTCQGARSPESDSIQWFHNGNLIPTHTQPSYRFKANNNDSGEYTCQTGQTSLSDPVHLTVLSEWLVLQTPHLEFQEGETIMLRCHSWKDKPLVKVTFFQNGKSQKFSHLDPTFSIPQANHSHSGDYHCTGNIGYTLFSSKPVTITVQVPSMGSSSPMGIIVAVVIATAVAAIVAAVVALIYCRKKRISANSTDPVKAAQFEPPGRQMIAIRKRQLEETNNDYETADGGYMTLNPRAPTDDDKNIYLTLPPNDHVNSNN", "experiment": "cell-based or functional assay"}, "[2]": {"biological_target": "hPF4/heparin complex (human) (UniProt P02776)", "sequence (P02776 32-101, one chain of several)": "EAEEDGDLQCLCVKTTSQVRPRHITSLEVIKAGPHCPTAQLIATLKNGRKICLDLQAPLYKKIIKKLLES", "experiment": "cell-based or functional assay"}, "[3]": {"biological_target": "hPF4/heparin complex (human) (UniProt P02776)", "experiment": "ELISA, wells coated with hPF4/heparin complex"}, "[4]": {"biological_target": "hPF4/heparin complex (human) (UniProt P02776)", "experiment": "ELISA, wells coated with hPF4 with or without heparin"}, "[5]": {"biological_target": "hPF4/heparin complex (human) (UniProt P02776)", "experiment": "ELISA (A405), KKO below 0.14 micrograms per milliliter"}}, "data": [{"substance": "murine monoclonal antibody KKO", "values": [{"measurement": "14C-serotonin release induced by KKO in the presence of the FcγRIIA-specific mAb IV.3", "setting": "[1]", "value": "< 5", "unit": "% release"}, {"measurement": "KKO concentration required to initiate 14C-serotonin release (micrograms per milliliter)", "setting": "[2]", "value": "> 180"}, {"measurement": "EC50", "setting": "[3]", "value": 0.036, "unit": "µg/mL"}, {"measurement": "A405 ratio to hPF4/heparin complex versus hPF4 alone", "setting": "[4]", "value": "> 30"}, {"measurement": "ratio of binding to PF4/heparin complex vs. binding to PF4 alone", "setting": "[5]", "value": "> 400"}]}]}
